Laboratory results published in publication PMC6432644.

Biological target: Hsp90AA1-MC, HA-tagged
Test: native gel or EMSA

stoichiometry N: 2
Substance: Hsp90AA1-MC, HA-tagged (domain or fragment)
